Data from patent publication US20090082268A1 (GEYMONAT S P A, published 2009).

Target: T1, human VEGFR-1/Fc (R&D Systems) (human, UniProt P17948 27-756, limits assumed)
T1 construct: Bought reagent, coated on the ELISA plate; also called receptor Flt-1; not shown: Fc part of the bought fusion
Assay: ELISA: VEGFR-1/Fc coated, PlGF-1 diluted two-fold from 20 ng/ml, detected with biotinylated anti-human PlGF antibodies
Method: To test receptor binding, an ELISA assay was performed according to the following protocol: [0141] 1. Well of 96-well microtiter plate were coated with 200 μl of 1 μg/ml human VEGFR-1/Fc (R&D Systems) and incubated overnight at 4° C. [0142] 2. Two-fold dilution series starting at 20 ng/ml of various preparations of recombinant human PlGF-1 were prepared and added in a volume of 100 μl per well. The plate was incubated for 2 hours at room temperature. [0143] 3. Bound PlGF-1 was captured with biotinylated anti-human PlGF antibodies (R&D Systems) added in a volume of 100 μl per well for 1 hour at room temperature. [0144] 4. A 1:200 dilution of horseradish peroxidase-conjugated streptavidin (R&D Systems) was added and incubated for 20 min. at room temperature. [0145] 5. Substrate solution (TMB from Pierce) was added and after 15 min. the reaction was quenched with 2 M sulfuric acid. [0146] 6. The absorbance was measured at 450 nm.

T1 sequence (P17948 27-756 limits assumed): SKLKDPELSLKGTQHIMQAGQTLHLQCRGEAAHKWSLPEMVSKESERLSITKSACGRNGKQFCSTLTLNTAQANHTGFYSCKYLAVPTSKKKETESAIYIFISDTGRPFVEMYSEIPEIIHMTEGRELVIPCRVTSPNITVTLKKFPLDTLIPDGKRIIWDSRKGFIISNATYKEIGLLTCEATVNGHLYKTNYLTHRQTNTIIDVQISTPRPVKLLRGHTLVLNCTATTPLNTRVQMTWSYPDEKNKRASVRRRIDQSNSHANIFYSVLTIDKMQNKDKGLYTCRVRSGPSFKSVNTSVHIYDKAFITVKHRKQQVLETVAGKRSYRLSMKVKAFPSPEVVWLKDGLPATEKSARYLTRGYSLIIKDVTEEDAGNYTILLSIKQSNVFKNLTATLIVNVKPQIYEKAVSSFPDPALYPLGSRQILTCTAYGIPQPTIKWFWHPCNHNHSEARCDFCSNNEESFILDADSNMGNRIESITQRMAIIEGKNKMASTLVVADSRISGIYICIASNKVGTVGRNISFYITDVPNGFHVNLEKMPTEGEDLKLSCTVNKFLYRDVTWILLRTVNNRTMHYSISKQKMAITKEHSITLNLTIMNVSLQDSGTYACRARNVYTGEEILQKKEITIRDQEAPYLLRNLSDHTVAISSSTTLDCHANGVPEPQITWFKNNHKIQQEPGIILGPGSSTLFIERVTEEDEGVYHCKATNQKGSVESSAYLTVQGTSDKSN

binding result: binds
B1: PlGF-1 mutein from Geymonat (recombinant human PLGF-1CG) (ligand)
chain: MLPAVPPQQWALSAGNGSSEVEVVPFQEVWGRSYCRALERLVDVVSEYPSEVEHMFSPSCVSLLRCTGCCGDENLHCVPVETANVTMQLLKIRSGDRPSYVELTFSQHVRCECRPLREKMKPERGGDAVPRR
notes: Described as 'a PlGF-1 mutein embodiment of the present invention'; also called Geymonat Mutein; Mutein Geymonat
